From PMC11480844

B1: H2-Kb / E4 (parent)
chain 1: AQSVTQPDARVTVSEGASLQLRCKYSYSGTPYLFWYVQYPRQGLQLLLKYYSGDPVVQGVNGFEAEFIKSNSSFHLRKASVHWSDSAVYFCAVSAGQGGSAKLIFGEGTKLTVSS
chain 2: GGIITQTPKFLIGQEGQKLTLKCQQNFNHDTMYWYRQDSGKGLRLIYYSITENDLQKGDLSEGYDASREKKSSFSLTVTSAQKNEMAVFLCASSIWGDSYEQYFGPGTRLTVL
chain 3: not shown
chain 4: IQKTPQIQVYSRHPPENGKPNILNCYVTQFHPPHIEIQMLKNGKKIPKVEMSDMSFSKDWSFYILAHTEFTPTETDTYACRVKHDSMAEPKTVYWDRDM
chain 5: SIINFEKL
B2: H2-Kb / B16 (parent)
chain 1: QQQVRQSPQSLTVWEGGTTVLTCSYEDSTFNYFPWYQQFPGEGPALLISILSVSDKKEDGRFTTFFNKREKKLSLHIIDSQPGDSATYFCAARGSALGRLHFGAGTQLIVIP
chain 2: EAAVTQSPRSKVAVTGGKVTLSCHQTNNHDYMYWYRQDTGHGLRLIHYSYVADSTEKGDIPDGYKASRPSQENFSLILELASLSQTAVYFCASSDGTNQAPLFGEGTRLSVL
chain 3: not shown
chain 4: B1 chain 4
chain 5: SIINFEKL
B3: H2-Kb / H6 (parent)
chain 1: AQKVTQTQTSISVMEKTTVTMDCVYETQDSSYFLFWYKQTASGEIVFLIRQDSYKKENATVGHYSLNFQKPKSSIGLIITATQIEDSAVYFCAMRDYNQGKLIFGQGTKLSIKP
chain 2: EAAVTQSPRSKVAVTGGKVTLSCHQTNNHDYMYWYRQDTGHGLRLIHYSYVADSTEKGDIPDGYKASRPSQENFSLILELASLSQTAVYFCASSGTAANSDYTFGSGTRLLVI
chain 3: not shown
chain 4: B1 chain 4
chain 5: SIINFEKL

Variants of: B1
Assay: % of reporter cells activated (NFAT-GFP), raw
Details: with E4
Note: test concentration or dose not given here.

Ratio to parent of substitutions, site by site:
chain 5 F5: P 0.762, Q 0.778, R 0.508, S 0.556, T 0.841, V 0.206, W 0.54, Y 0.492
chain 5 I2: A 1.43, C 1.19, D 0.762, E 0.873, F 0.746, G 0.873, H 1.06, K 0.746, L 1.1, M 1.14, N 1.27, P 0.937, Q 0.937, R 0.556, S 0.651, T 0.968, V 0.921, W 1.11, Y 0.825
chain 5 I3: A 0.921, C 0.762, D 0.73, E 1.37, F 0.762, G 0.825, H 0.921, K 0.937, L 1.22, M 1, N 0.667, P 0.206, Q 0.81, R 0.603, S 0.762, T 0.571, V 0.698, W 0.762, Y 0.508
chain 5 K7: A 0.413, C 1.32, D 0.444, E 0.873, F 0.49, G 0.841, H 0.905, I 1.29, L 0.508, M 0.492, N 0.437, P 0.508, Q 0.521, R 0.633, S 0.46, T 0.378, V 0.841, W 0.413, Y 0.425
chain 5 L8: A 0.286, C 0.46, D 0.444, E 0.619, F 0.427, G 0.746, H 0.825, I 0.286, K 0.635, M 0.381, N 0.778, P 0.762, Q 0.524, R 1.29, S 0.51, T 0.73, V 0.603, W 0.762, Y 0.6
chain 5 N4: A 0.889, C 0.921, D 0.794, E 0.603, F 0.635, G 0.698, H 1.05, I 0.873, K 1.1, L 1.02, M 0.968, P 0.651, Q 0.714, R 0.905, S 0.714, T 0.635, V 0.825, W 0.286, Y 0.762
chain 5 S1: A 0.857, C 0.952, D 0.984, E 0.698, F 0.857, G 0.937, H 0.841, I 0.825, K 1.24, L 0.937, M 0.857, N 0.825, P 0.857, Q 0.889, R 0.565, T 0.905, V 0.889, W 0.841, Y 0.873

Variants of: B2
Assay: % of reporter cells activated (NFAT-GFP), raw
Details: with B16; scale: % of reporter cells activated

Ratio to parent of substitutions, site by site:
chain 5 E6: A 1.57, C 2.48, D 1.36, F 1.48, G 1.23, H 1.39, I 0.917, K 1.12, L 1.21, M 1.43, N 1.36, P 1.09, Q 1.5, R 1.29, S 1.25, T 1.4, V 1.2, W 1.05, Y 1.02
chain 5 F5: A 1.48, C 1.46, D 1.4, E 1.52, G 1.52, H 1.61, I 1.07, K 1.52, L 1.44, M 1.52, N 1.21, P 1.74, Q 1.39, R 1.2, S 1.27, T 1.4, V 0.945, W 1.26, Y 1.31
chain 5 I2: A 1.49, C 1.48, D 1.19, E 1.47, F 1.2, G 1.56, H 1.62, K 1.52, L 1.51, M 1.11, N 1.26, P 1.48, Q 1.21, R 0.921, S 1.34, T 1.34, V 1.33, W 1.35, Y 1.3
chain 5 I3: A 1.55, C 1.52, D 1.13, E 1.3, F 1.11, G 1.22, H 1.38, K 1.44, L 1.28, M 1.4, N 1.37, P 2.05, Q 1.5, R 0.807, S 1.5, T 1.24, V 1.07, W 1.08, Y 1.33
chain 5 K7: A 1.29, C 1.33, D 0.886, E 1.16, F 1.01, G 1.06, H 1.21, I 1.41, L 1.03, M 0.921, N 0.823, P 1.02, Q 1.39, R 0.488, S 0.657, T 0.665, V 0.823, W 0.496, Y 0.996
chain 5 L8: A 0.921, C 0.996, D 0.823, E 0.547, F 0.579, G 1.26, H 1.1, I 0.602, K 0.827, M 0.799, N 0.744, P 1.36, Q 1.04, R 1.28, S 0.65, T 0.787, V 0.697, W 0.689, Y 1.24
chain 5 N4: A 1.39, C 1.2, D 1.19, E 1.25, F 0.909, G 1.35, H 1.26, I 1.25, K 1.37, L 1.48, M 1.21, P 1.25, Q 0.992, R 0.969, S 1.09, T 1.04, V 1.14, W 1.13, Y 0.87
chain 5 S1: A 1.54, C 1.57, D 1.29, E 1.26, F 1.35, G 1.43, H 1.37, I 1.35, K 1.38, L 1.11, M 1.08, N 1.09, P 1.3, Q 1.28, R 0.846, T 1.36, V 1.16, W 0.941, Y 1.56

Variants of: B3
Assay: % of reporter cells activated (NFAT-GFP), raw
Details: with H6; scale: % of reporter cells activated

Ratio to parent: each site, then its substitutions
chain 5 E6: A 0.0933, C 0.0748, D 0.365, F 0.11, G 0.168, H 0.0877, I 0.0822, K 0.131, L 0.0813, M 0.0896, N 0.102, P 0.0822, Q 0.0813, R 0.097, S 0.107, T 0.0942, V 0.0536, W 0.084, Y 0.0997
chain 5 F5: A 0.809, C 1.01, D 0.192, E 0.163, G 0.381, H 0.777, I 0.711, K 0.173, L 0.863, M 1.14, N 0.446, P 0.546, Q 0.495, R 0.248, S 0.6, T 0.694, V 0.796, W 0.795, Y 0.516
chain 5 I2: A 1.5, C 1.27, D 1.01, E 1.09, F 0.733, G 0.956, H 0.243, K 0.24, L 1.29, M 0.624, N 0.541, P 0.351, Q 0.385, R 0.281, S 1.56, T 1.49, V 1.54, W 0.585, Y 0.408
chain 5 I3: A 1.33, C 1.57, D 0.149
